Assay results taken from publication PMC10002499 (2023).

Target: PDCD6 (ALG-2) construct (rat, UniProt G3V7W1 1-191)
Assay: SPR; 0 added Ca2+

Sequence of PDCD6 (ALG-2) construct (G3V7W1 whole entry): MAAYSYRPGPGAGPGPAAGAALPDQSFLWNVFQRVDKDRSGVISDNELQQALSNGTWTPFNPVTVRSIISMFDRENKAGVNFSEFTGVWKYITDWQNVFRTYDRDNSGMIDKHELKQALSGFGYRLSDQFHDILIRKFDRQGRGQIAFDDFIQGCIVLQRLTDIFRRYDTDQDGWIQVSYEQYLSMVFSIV

B1: dysferlin extended C2DE region (aa 1284-1576) (domain or fragment)
chain: AIHHIPGFEMHETSRILDETEDTDLPYPPPQREANIYMVPQNIKPALQRTAIEILAWGLRNIKSYQMASVSSPSLVVECGGQTVQSCVIRNLRKNPNFDVCTLFMEVMLPREDLYCPPIVVKVIDNRQFGRRPVVGQCTIRSLENFLCDPYSAESPSPQGGPDDVSLLSPGEDVLIDIDDKEPLIPVQEEEFIDWWSKFFASIGEREKCGSYLEKDFDTLKVYDTQLENVEAFGGLSDFCNTFKLYRGKTQEDTEDPSVIGEFKGLFKIYPLPEDPAIPMPPRQFHQLAAQGP
  Kd: 160 nM
